The target of data set [1] is T1, vanC2 D-Ala-D-Ser ligase (EcfDdls) (Enterococcus casseliflavus, UniProt Q47720).
T1 construct: C-terminal 6x His-tagged EcfDdls, strain SSK, ~39 kDa
Description: malachite green inorganic phosphate detection assay with purified enzyme. The format is biochemical.

Data set [2] deals with C[C@@H](N)C(=O)O. Description: Michaelis-Menten kinetics (Km1), inorganic phosphate detection assay. The format is biochemical, Enterococcus casseliflavus. The settings on record: ATP, MgCl2 subsite […] (first substrate binding site).
For data set [3], the system named is N[C@H](CO)C(=O)O. Description: Michaelis-Menten kinetics (Km2), inorganic phosphate detection assay. The format is biochemical, Enterococcus casseliflavus. Particulars: ATP, MgCl2 subsite […] (second substrate binding site).
Data set [4] relates to Nc1ncnc2c1ncn2[C@@H]1O[C@H](COP(=O)(O)OP(=O)(O)OP(=O)(O)O)[C@@H](O)[C@H]1O. Description: Michaelis-Menten kinetics (Km), inorganic phosphate detection assay. The format is biochemical, Enterococcus casseliflavus. Particulars: MgCl2.

Where two headings read alike, the source gives them in different places.

T1 sequence (Q47720 whole entry): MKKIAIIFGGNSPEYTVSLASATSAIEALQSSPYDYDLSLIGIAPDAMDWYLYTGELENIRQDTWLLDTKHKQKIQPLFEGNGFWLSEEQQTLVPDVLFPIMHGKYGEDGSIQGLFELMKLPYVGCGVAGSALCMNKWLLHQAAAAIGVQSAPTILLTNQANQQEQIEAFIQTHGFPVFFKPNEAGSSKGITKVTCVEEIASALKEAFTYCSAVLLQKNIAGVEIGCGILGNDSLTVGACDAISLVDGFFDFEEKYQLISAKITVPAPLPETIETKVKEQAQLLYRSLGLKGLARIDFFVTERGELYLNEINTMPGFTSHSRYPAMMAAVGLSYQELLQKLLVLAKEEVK

`N[C@@H]1CON=C1O` [DCS, D-cycloserine] returned an IC50 in data set [1] of 313 ± 1.6 µM. For “vanC2 D-Ala-D-Ser ligase (EcfDdls) (Enterococcus casseliflavus)”, the Km in data set [2] was 1120 ± 100 µM; in data set [3], 800 ± 100 µM; in data set [4], 24.31 ± 4.1 µM. On to `Cc1cc(CN2CCN(Cc3nc(C(C)C)no3)CC2)no1` [CID 45805715, 1-[(5-methyl-1,2-oxazol-3-yl)methyl]-4-{[3-(propan-2-yl)-1,2,4-oxadiazol-5-yl]methyl}piperazine], for which the IC50 in data set [1] (read-out: IC50) turned out to be 76.7 ± 1.01 µM.

The values are drawn from article PMC12004154, “Overexpression, Purification, and Biochemical Characterization of the vanC2 D-Ala-D-Ser Ligase from Enterococcus casseliflavus SSK and Its Inhibition by an Oxadiazole Derivative” (ACS Omega, 2025).
